The supplement of paper PMC9170038

Each sequence was assayed on K4 kissing-loop RNA reporter (assay: apparent KD of K4 kissing-loop reporter; higher = weaker reporter binding). Settings: Eterna round: R107; input ligand: theophylline 20 uM.
Experimental: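 RNA-MaP round R107: designed RNA switches with theophylline, tryptophan, arginine or FMN aptamers are transcribed on-chip within common flanks. They are titrated with a labelled K4 kissing-loop RNA reporter in RNA-MaP buffer (100 mM Tris pH 7.5, 80 mM KCl, 4 mM MgCl2), without ligand or with the indicated ligand. Median apparent KD per design.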
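Further: bound reporter read as fluorescence of individual clusters on recovered sequencing chips by microscopy, with normalized cluster intensities fitted with a binding model.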

“GGUGACGGCCAGGAGUGAUGUAUAGAAUAGCGAGGACCGGUACGGCCGCCACUCGUGAAGAAAAGGGAGUGAUGUUCCGUAAUGG [Kazoo B]” and “CGCGCGCGCUGAGAGGCGCGCGCGAAUGAUACCAGUAUAUAAGAAUACCCUUGGCAGCAUAAGAAAGAUAUAGUGAUGUUGUAUA [SSTheophA.D]” are within 1.5-fold of each other in “apparent KD of K4 kissing-loop reporter” value: 229 nM for the first, 201 nM for the second.

First: AAGCAGUCACUCGAACCCAUCGAAGAUGGGCGAGGACCGGUACGGCCGCCACUCGGAGUGAUGUUCCGAAGACUGCAAAAUAAAA
Second: GGGCAUCAGGCUGAUACCAGUGAUAAAGGAUAAGAGACAGGGAGUGAUGUUCCCUUUACCCACCCUUGGCAGCAGUUUAAGUUUG [Exclusion Theophylline B GF 16]
The “apparent KD of K4 kissing-loop reporter” value of the first is 3.6-fold higher: 341 nM for the first, 94.3 nM for the second.

First: GAGAACUCUUACGAUACCAGCCGGAGUGAUGUUCCGUGCUUGGACGUAGUAACCCGCACCGGCCCUUGGCAGCGUGGAUCCUAUG [Biorar]
Second: UCCUGCAAUCUGCCACGAAAGUGGAUUGAUACCAGAGUCGAAAGACUCCCUUGGCAGCGAGUGAUGUUCGAAGCAGGUAAAUAAA
The “apparent KD of K4 kissing-loop reporter” value of the first is 2-fold lower: 79.3 nM for the first, 160 nM for the second.

“UUAGAUCAAAGAUCAGUCUUAUUGAGAGAACGAGGACCGGUACGGCCGCCACUCGAGUGAUGUUCGAGAACUCUCUUGACAAAUU [AK1 EXC Tryptophan A]” and “UGAUUUAACUGAAGGAGCGGCAAUUGAUAAGUAAAUAUAGUGAUGUUAUAUAAGAUAGAGAGCCAGGUAGGUCGCAGAGGUAUGA [ExArgB.L]” are within 1.5-fold of each other in “apparent KD of K4 kissing-loop reporter” value: 133 nM for the first, 150 nM for the second.

Going from “UUUUUCCCGCAGGAUACCAGCAACCAAACGUCAUGCGAAGUGAUGUUUCGCUUACGGUAGUGCCCUUGGCAGCCUUCGGUAGGGU [thingy]” to “AGAACUGUCUGAGAUACCAGCCAUAGGAGUGAUGUUCCUAGCUCCACAAAGUGGAGCCAUAGCCCUUGGCAGCUCAGACAGUUCA [Omei KL Theo B SS A v7]”, the “apparent KD of K4 kissing-loop reporter” value rises from 119 nM to 771 nM (6.5-fold).

“UGUCUUUUUUUGAUGUUUUUUGUAUAAUGGCAGGAUAUCGUAGAUGCGAGAAGGGCUUUUAUGCGUUAUGAGUGAUGUUUGUAGG [vjjbvmullin]” and “GCAAGGCUACAAGGAUAUGCGCGAACCUACCGCCAAGCGGCUACCGGUGAGUCAGUGAUGUUGGCUGCAGAAGGUGUGAUUGAGC [theeternabot_sameState_KL_FMN_B_45]” are within 1.5-fold of each other in “apparent KD of K4 kissing-loop reporter” value: 332 nM for the first, 380 nM for the second.

Going from “UCGCAUUAACCGGAUACCAGCUUAGUGGGAUCUUCAAUCCGACAGAAAGUGAUGUUUUCUAGCCCUUGGCAGCCGAGAUUAUCAC [theeternabot_sameState_KL_Theo_B_50]” to “GGGAACUCUUACGAUACCAGCCGGAGUGAUGUUCCGCGCUUGGACGUAGUAACCCGCACCGGCCCUUGGCAGCGUGGAUCUUAUA [Esbedi]”, the “apparent KD of K4 kissing-loop reporter” value falls from 412 nM to 82.7 nM (5-fold).

“GGCGCCAGGAAAGGAUAUCUAAGUCUAUUAUCAAGAAUUGCCUCAAGAUCGGAGUGAUGUUCCCAGAGAGAAGGUUCUAUCCGCU [theeternabot_exclusion_KL_FMN_B_38]” and “UAAUGUGGCACAGGAUAUACUGAUUGGAGUGAUGUUCCAAACAUGAACAAGAGACUUUUACAAGAAGUAGAAGGGUGUUAGAUAU [Exclusion FMN B GF 19]” are within 1.5-fold of each other in “apparent KD of K4 kissing-loop reporter” value: 206 nM for the first, 295 nM for the second.

Compared with “GGAUAGGACAGAGGAUAUGGUAGUGAUGUUACCAAACUGGUUAUCAAUGUUAGAAAAUUGACAAAACCAGAAGGCUGUCCUAUCG [KL-XFMN-B15]”, “AUUUAAUGUAUAGAUUAUAUACAUUAUUCAGAGGAUAUGCAUUGAAGCAGAAGGCUGGGUGUAGUGAUGUUGCAGUUUUAAUUUA [whbob_SS_FMNA__2th173]” is 3.8-fold higher in “apparent KD of K4 kissing-loop reporter” value: 59.2 nM for the first, 224 nM for the second.

First: GGCACUACAGCGGCCGCCACUGUUUAGUCCAUCGCUUGCGAGUGAUGUUCGUAGGUACUGCAGCUCAGGACCGGGCUGUCCUUAC [theeternabot_sameState_KL_Trp_B_34]
Second: GCCUACGAUGCAGGAUAUAGCUCGCGAGUGAUGUUCGCAGCUGUAUGGUAGUAAGCUUCCACGUGUCUAGAAGGGCAUCGUAGGC [#01 K4 FMN B Exclusion]
The “apparent KD of K4 kissing-loop reporter” value of the first is 3.7-fold higher: 310 nM for the first, 83.3 nM for the second.

Compared with “AAAUAAAGCAGUCACCCAGUGAUGUUGGAAGGAGCGUGCGAAAGCACAGGUAGGUCGCCGAUAAGGACAAAGUCCAGUGGCUGCA [#SwitchBubble 28 #K4Early]”, “AAAUUUAUAUUAGAUACCAGUUUAAUGGAUGUAAAUUAUGACAUGAGUGAUGUUCAUGUAAGCCCUUGGCAGCUGGUAUGGGUUU [KL-XTheo-B21]” is 5.1-fold lower in “apparent KD of K4 kissing-loop reporter” value: 590 nM for the first, 116 nM for the second.

Compared with “AUGCGCGUGCGAUGGAAAUCGCACGCGCAUCGAGGACCGGUACGGCCGCCACUCGCUCGCGCCGAGUGAUGUUCGGCCGGCGAAC [#2 SameState - Tryptophan_A Attempt #3 (HarryS)]”, “AUGACUCAAUAGUGAGUGAUGUUCACUGGACGAGGACCGGUACGGCCGCCACUCGAGAGUGGUGGACACUGUGUCACUGAGUCAU [Tryp A Ex t1]” is 1.7-fold lower in “apparent KD of K4 kissing-loop reporter” value: 329 nM for the first, 194 nM for the second.

“AAACGUUGGUGCGAUACCAGCUGGUCGGAAACGACCUUGCUGGAGUGAUGUUCCAAGUAAAGCCCUUGGCAGCGCACCGACGAAA [MAT - Same State Theophlline B - Mod of Eli - D23]” and “AUACAGCGAAGCGCUAGUGAUGUUAGCGAAGGAGCGACUCAGGAGUCAGGUAGGUCGCGCUAAACAGGUUACGAGAGUAACCAGU [Arg A Ex t1]” are within 1.5-fold of each other in “apparent KD of K4 kissing-loop reporter” value: 135 nM for the first, 137 nM for the second.

“CGGGAUGUUAAAGGAUAUAGCAGGUGAUACAAGAAAGUGAGUGAUGUUUAUGUAGAUGAUGAUAUGUUAGAAGGUUAACAAAACG [abcdefghijkl]” was tested, and the “apparent KD of K4 kissing-loop reporter” value was 686 nM.
